Results as given in patent US20060194321A1, “Directed differentiation of embryonic stem cells and uses thereof” (priority 2005, published 2006).
Entries after “also recorded” stand apart in the source; their conditions may differ.

Test system: Human embryonic stem cell 3 (hES3)
Assay: pdx-1 expression by quantitative RT-PCR in embryoid bodies in 3D […] (initiation protocol)
Assay type: cell-based
Conditions: factor included in or omitted from the early/late factor cocktail, day 20
Description: Human embryonic stem cell 3 (hES3) were subjected to a multi-step differentiation protocol, as outlined in FIG. 2. The embryonic stem cells were cultured as embryoid bodies suspended in 3D in […]™. The cells were cultured for 10 days in medium containing the early factors and then for 10 days in medium containing the late factors. Following culture, cells were assayed for expression of pdx-1.
To establish a baseline for comparison, human embryonic stem cells were differentiated, as described above, in 3-dimensional culture in […]™ for 20 days. […] RNA was isolated and analyzed for pdx-1 and actin expression by RT-PCR. Data were standardized in comparison to actin expression, and the results are expressed as absolute g pdx-1/kg Actin expression+/−SD.
We evaluated individual early and late factors. […] This revised protocol differs from the initial 20-day protocol only in the nature of the early and late factors used. This 2 EF-3 LF protocol included the early factors Activin A (50 ng/ml) and BMP-4 (50 ng/ml). The cells were cultured in the early factors as previously described from day 0 to day 10. The 2 EF-3 LF protocol included the late factors HGF (50 ng/ml), exendin-4 (10 ng/ml), and β-cellulin (50 ng/ml).
RNA isolation, cDNA synthesis, and quantitative PCR: Total RNA from hESC or EBs at various stages of differentiation was isolated using the Qiagen RNeasy kit or prepared using Trizol reagent (Invitrogen) according to the manufacturer's instructions. RNA was and quantified by UV absorption. 1 to 5 μg of RNA was DNase I treated and converted to cDNA using M-MuLV reverse transcriptase (New England Biolabs) using oligo-dT or random hexamer primers according to the manufacturer's instructions. Quantitative PCR was performed according to the manufacturer's instructions using a BioRad iCycler with approximately 50 ng cDNA per reaction containing 250 nM of each primer and 1×SYBR green master mix (Bio-Rad) and analyzed by Bio-RAD thermocycler.
Standard curves were generated by plotting the log (concentration in fg) of series of 100-fold dilutions of the target PCR amplicon (a range of 10^4 fg to 1 fg per reaction) versus the corresponding threshold Ct value. Normalized expression was determined by the following equation: Normalized expression=(input of target gene/input of actin control), where input is calculated as the inverse log of ((the threshold cycle (Ct value)—Y-intercept of standard curve)/slope of standard curve).

Row | Molecule | contribution of the factor to induction of pdx-1 expression | contribution of the factor to induction of pdx-1 expression (listed as nodal) | contribution of the factor to induction of pdx-1 expression (listed as betacellulin)
1 | Activin A: early factor, TGF-β related growth factor, 50 ng/ml (protein, UniProt P08476 311-426, looked up, Inhibin beta A chain, early factor, TGF-β related growth factor, 50 ng/ml) Inhibin beta A chain: GLECDGKVNICCKKQFFVSFKDIGWNDWIIAPSGYHANYCEGECPSHIAGTSGSSLSFHSTVINHYRMRGHSPFANLKSCCVPTKLRPMSMLYYDDGQNIIKKDIQNMIVEECGCS | important components |  | 
2 | BMP4: early factor, growth factor, 50 ng/ml (protein, UniProt P12644 293-408, looked up) Bone morphogenetic protein 4: SPKHHSQRARKKNKNCRRHSLYVDFSDVGWNDWIVAPPGYQAFYCHGDCPFPLADHLNSTNHAIVQTLVNSVNSSIPKACCVPTELSAISMLYLDEYDKVVLKNYQEMVVEGCGCR | important components |  | 
3 | Nodal: TGF-β-related ligand, evolutionarily conserved endoderm inducer; recombinant protein (protein, UniProt Q96S42 238-347, looked up) Nodal homolog: HHLPDRSQLCRKVKFQVDFNLIGWGSWIIYPKQYNAYRCEGECPNPVGEEFHPTNHAYIQSLLKRYQPHRVPSTCCAPVKTKPLSMLYVDNGRVLLDHHKDMIVEECGCL | little effect; also recorded: does not significantly improve | optional | 
4 | Beta-cellulin: late factor growth factor, 50 ng/ml (protein, UniProt P35070 32-111, looked up) Betacellulin: DGNSTRSPETNGLLCGDPEENCAATTTQSKRKGHFSRCPKQYKHYCIKGRCRFVVAEQTPSCVCDEGYIGARCERVDLFY | important component |  | optional
